By Kd is commonly meant the free concentration of one partner at which half of the binding sites on the other are occupied at equilibrium, for simple one-to-one binding. A word on the koff: it is the rate constant with which the complex falls apart. Broadly, the kon is the second-order rate constant of association. A word on the EC50: it is the concentration at which the effect is half-maximal.

Five molecules from patent US20140178389A1 (AbbVie / Abbott, published 2014) can be followed below.

Experiment [1] addresses T1, recombinant human IL-1β (human, UniProt P01584 117-269). Kind of experiment: cell-based or functional assay.
The target in experiment [2] is T2, recombinant human IL-1α (human, UniProt P01583 113-271).
T2 sequence: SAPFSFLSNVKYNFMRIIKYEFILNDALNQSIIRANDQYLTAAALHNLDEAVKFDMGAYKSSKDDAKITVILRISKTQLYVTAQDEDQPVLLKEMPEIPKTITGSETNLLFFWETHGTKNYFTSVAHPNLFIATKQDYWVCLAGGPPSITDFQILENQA
Kind of experiment: cell-based or functional assay.

The target of experiment [3] is T3, recombinant cynomolgus IL-1β (cynomolgus, UniProt P79182 117-268).
T3 sequence (looked up): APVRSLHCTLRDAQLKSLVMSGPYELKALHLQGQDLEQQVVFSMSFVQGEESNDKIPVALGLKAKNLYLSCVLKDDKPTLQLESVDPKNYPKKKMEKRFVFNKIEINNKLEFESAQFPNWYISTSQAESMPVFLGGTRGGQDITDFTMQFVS
Put plainly: cell-based or functional assay.

Experiment [4] concerns the target T4, recombinant cynomolgus IL-1α (cynomolgus, UniProt P79340 113-271).
T4 sequence (looked up): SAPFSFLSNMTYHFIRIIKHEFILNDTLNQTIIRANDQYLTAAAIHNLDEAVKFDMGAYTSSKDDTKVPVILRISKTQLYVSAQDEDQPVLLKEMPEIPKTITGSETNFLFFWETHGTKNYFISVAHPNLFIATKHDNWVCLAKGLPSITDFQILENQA
Put plainly: cell-based or functional assay.

In experiment [5] the target is purified native human IL-1β (human, UniProt P01584 117-269). Kind of experiment: cell-based or functional assay.
Experiment [6] deals with T5, native human IL-1α present in crude supernatants (human, UniProt P01583 113-271, limits assumed).
T5 sequence (looked up): T2 sequence
Put plainly: cell-based or functional assay.

For experiment [7], the target named is T1, recombinant human IL-1β. Kind of experiment: SPR (Biacore), Ig captured via goat anti-human IgG Fc, antigen in solution. As to the method: (§1) Goat IgGs specific to human IgG Fc were covalently linked to the carboxy methyl dextran matrix on the CMS biosensor chip via free amine groups using an amine coupling kit and the immobilization wizard option in the Biacore instruments controlling software. Specifically, carboxyl groups of the dextran matrix on the chip were activated with NHS and EDC. Goat anti-human IgG Fc antibodies (25 μg/mL), diluted in 10 mM sodium acetate, pH 4.5, were injected across the activated surface. Once the level of binding response reached the desired value, unreacted groups were deactivated by injection of 1M ethanolamine. For binding of IL-1α & IL-1β to captured Ig, a 1 μg/mL concentration of Ig in HBS-EP+ was injected over the goat anti-human IgG Fc surface at a flow rate of 10 μL/min for 1 minute. The net difference in the baseline signal and the signal after the completion of the Ig injection was taken to represent the amount of bound Ig.
(In general: Surface plasmon resonance follows binding to a sensor surface in real time, without labels.)

Experiment [8] concerns the target T2, recombinant human IL-1α. The description is as above. The method, then:
as §1

The target in experiment [9] is T3, recombinant cynomolgus IL-1β. The experiment is described as above. The method, then: as §1
The target in experiment [10] is T4, recombinant cynomolgus IL-1α. Described as above. The method, then:
as §1

Experiment [11] addresses T1, recombinant human IL-1β. Kind of experiment: SPR (Biacore), Expt 1. The method, then:
as §1

Experiment [12] addresses T3, recombinant cynomolgus IL-1β. Kind of experiment: SPR (Biacore), Expt 1. As to the method:
as §1

Experiment [13] addresses T1, recombinant human IL-1β. Kind of experiment: SPR (Biacore), Expt 2. As to the method: as §1
The target of experiment [14] is T3, recombinant cynomolgus IL-1β. Put plainly: SPR (Biacore), Expt 2. As to the method: as §1
Experiment [15] addresses T1, recombinant human IL-1β. Put plainly: SPR (Biacore), average of 2 experiments. The method, then:
as §1

For experiment [16], the target named is T3, recombinant cynomolgus IL-1β. Put plainly: SPR (Biacore), average of 2 experiments. The method, then:
as §1

In experiment [17] the target is T1, recombinant human IL-1β. Put plainly: indirect ELISA: mAb captured on goat anti-human IgG, biotinylated IL-1β titrated. The method, then: (§2) An indirect ELISA was performed to assess the relative affinity of the affinity matured h1B12.1 mAbs to a human chimeric version of the murine 1B12 mAb. An ELISA plate was coated with goat anti-human IgG (Jackson Immunoresearch cat#109-005-098) at 0.5 ug/mL overnight. The plate was blocked with 5% milk for 1 hour and washed three times with TPBS. Affinity-matured h1B12.1 antibodies and human IgG control (Sigma cat#12511) were incubated on the plate for 30 min at 0.2 μg/mL and then the plates were washed three times. A titration of biotinylated human IL-1β or biotinylated cyno IL-1β was added to the plate, starting at 10 nM and decreasing in concentration following a series of 1:3 dilutions. Binding of biotinylated IL-1β was detected with a 1:10000 dilution of peroxidase-conjugated streptavidin (Jackson Immunoresearch cat#016-030-084) and TMB substrate (Invitrogen). The data were fit in Graphpad prism to determine the EC₅₀ values.

In experiment [18] the target is T3, recombinant cynomolgus IL-1β. The experiment is described as above. As to the method: as §2

Where a chain is given by its changes, count along the chain named. Where only a bound is given, the exact number is not on record here.

B1: 1B12.1-SS-X3 DVD-Ig IgG1/k mut (234,235) (bispecific antibody)
heavy: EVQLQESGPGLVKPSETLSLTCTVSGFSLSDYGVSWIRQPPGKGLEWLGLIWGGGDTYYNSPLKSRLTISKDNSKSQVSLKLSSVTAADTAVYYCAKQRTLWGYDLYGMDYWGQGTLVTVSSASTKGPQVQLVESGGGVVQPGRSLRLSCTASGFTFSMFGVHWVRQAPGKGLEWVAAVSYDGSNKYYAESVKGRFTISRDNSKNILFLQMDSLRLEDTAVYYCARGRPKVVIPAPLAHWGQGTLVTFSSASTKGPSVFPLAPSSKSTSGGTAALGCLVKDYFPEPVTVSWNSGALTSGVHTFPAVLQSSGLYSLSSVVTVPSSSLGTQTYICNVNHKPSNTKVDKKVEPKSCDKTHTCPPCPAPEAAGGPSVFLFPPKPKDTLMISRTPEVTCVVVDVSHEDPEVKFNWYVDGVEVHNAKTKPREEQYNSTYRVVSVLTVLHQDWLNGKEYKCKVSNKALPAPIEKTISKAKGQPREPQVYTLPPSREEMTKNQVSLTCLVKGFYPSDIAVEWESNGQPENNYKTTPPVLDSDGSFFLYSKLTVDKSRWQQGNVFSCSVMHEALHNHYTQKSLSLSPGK
light: DTQVTQSPSSLSASVGDRVTITCITSTDIDVDMNWYQQKPGKPPKLLISQGNTLRPGVPSRFSSSGSGTDFTFTISSLQPEDFATYYCLQSDNLPLTFGQGTKLEIKRTVAAPDIQMTQSPSSVSASVGDRVTITCRASQGISSWLAWYQQKPGKAPKLLIYEASNLETGVPSRFSGSGSGSDFTLTISSLQPEDFATYYCQQTSSFLLSFGGGTKVEHKRTVAAPSVFIFPPSDEQLKSGTASVVCLLNNFYPREAKVQWKVDNALQSGNSQESVTEQDSKDSTYSLSSTLTLSKADYEKHKVYACEVTHQGLSSPVTKSFNRGEC
notes: also called PR-1308565
On to B1, for which the “Potency IC50 (pM), MRC-5 bioassay (IL-8 secretion)” value (shortened to “Potency IC50 (pM), MRC-5 bioassay”) in experiment [1] was determined as 26 pM; in experiment [2] it was 27 pM; in experiment [3] it was 461 pM; in experiment [4] it was 2510 pM; in experiment [5], 156 pM; in experiment [6], 79 pM. The Kd in experiment [7] was below 820 pM; in experiment [8], 120 pM; in experiment [9], 110 pM; in [10], 3500 pM. Also, the koff was determined as 0.00082 s⁻¹ in experiment [7], 2.4e-05 s⁻¹ in [8], 0.0008 s⁻¹ in experiment [9] and 0.00026 s⁻¹ in experiment [10]. Also, the kon was above 1e+06 M⁻¹ s⁻¹ in [7], 210000 M⁻¹ s⁻¹ in experiment [8], 7.3e+06 M⁻¹ s⁻¹ in experiment [9] and 74000 M⁻¹ s⁻¹ in experiment [10].

B2: 1B12.9, human anti-IL-1β IgG1/k mut (234,235) (antibody, V domains shown)
VH: EVQLQESGPGLVKPSETLSLTCTVSGFSLSDYGVSWIRQPPGKGLEWLGLIWGGGDTYYNSPLKSRLTISKDNSKSQVSLKLSSVTAADTAVYYCAKQRTLWGYDLYGMDYWGQGTLVTVSS
VL: DTQMTQSPSSLSASVGDRVTITCITSTDIDVDMNWYQQKPGKPPKLLISQGNTLRPGVPSRFSSSGSGTDFTFTISSLQPEDFATYYCLQSDNLPLTFGQGTKLEIKR
notes: also called PR-1317335; mAb 1B12.9
As to B2, the Kd turned out to be 140 pM in experiment [11]; 490 pM in [12]; 130 pM in [13]; 600 pM in experiment [14]; 140 pM in [15]; 550 pM in experiment [16]. Also, the koff in [11] is 0.00076 s⁻¹; in experiment [12], 0.00098 s⁻¹; in [13], 0.00077 s⁻¹; in [14] it was 0.00085 s⁻¹; in experiment [15] it was 0.00077 s⁻¹; in [16], 0.00092 s⁻¹. For the same molecule, the kon in experiment [11] is 5.5e+06 M⁻¹ s⁻¹; in experiment [12], 2e+06 M⁻¹ s⁻¹; in [13] it was 5.8e+06 M⁻¹ s⁻¹; in experiment [14], 1.4e+06 M⁻¹ s⁻¹; in [15] it was 5.7e+06 M⁻¹ s⁻¹; in [16], 1.7e+06 M⁻¹ s⁻¹. Further, the “Potency IC50 (pM), MRC-5 bioassay” value in experiment [1] is 691 pM; in [3], 352 pM; in experiment [5], 214 pM.

B3: Humanized monoclonal antibody 1B12.1 (antibody, V domains shown)
VH: B2 VH
VL: DTQVTQSPSSLSASVGDRVTITCITSTDIDVDMNWYQQKPGKPPKLLISQGNTLRPGVPSRFSSSGSGTDFTFTISSLQPEDFATYYCLQSDNLPLTFGQGTKLEIK
On to B3, for which the “Potency IC50 (pM), MRC-5 bioassay” value in [1] came out at 913 pM; in [3], 410 pM; in experiment [5], 329 pM.

B4: h1B12-AM2, affinity-matured h1B12.1 IgG1/k mut (234,235) mAb (scFv clone 21) (antibody, V domains shown)
VH: B2 VH with D31E, Y32F, L48I, T100N, G103A
VL: DIQMTQSPSSLSASVGDRVTITCQTSQDIDMDLNWYQQKPGKAPKLLISQGSTLWPGVPSRFSGSGSGTDFTFTISSLQPEDFATYYCLQTDSFPLTFGQGTKLEIKR
notes: also called PR-1354591
In the case of B4, the figures for the EC50 in [17] and in [18] were 26 pM and 34 pM, respectively.

B5: h1B12-AM4, affinity-matured h1B12.1 IgG1/k mut (234,235) mAb (scFv clone A1) (antibody, V domains shown)
VH: B2 VH with S30R, G54S, N73T, R99T, T100N, L101I
VL: B4 VL with T25A, G51A, S52N, W55P, T91S, S93W, F94L
notes: also called PR-1354594
On to B5, for which the EC50 is 31 pM in experiment [17] and 25 pM in experiment [18].
